Common to all, as to assay: negative stain EM with 2D averaging; DH loading reaction in solution, no downstream purification: 10 nM MH-NCP-ARS1-NCP DNA, 20 nM ORC, 30 nM Cdc6, 0.5 mM ATP, 20 nM MCM-Cdt1; 25 mM HEPES pH 7.6, 100 mM potassium chloride, 10 mM magnesium acetate, 1 mM DTT; 30 °C, 30 min; DH counted as % of averageable MCM particles, N = 3; assemblies form on DNA
In test [1] the target is MCM-Cdt1 complex with Mcm6 R708A (Arginine Finger variant) (Saccharomyces cerevisiae) (UniProt P29469).
Test [2] has as its target MCM-Cdt1 complex with Mcm4 R701A (Arginine Finger variant) (Saccharomyces cerevisiae) (UniProt P29469).
Test [3] has as its target MCM-Cdt1 complex with Mcm2 R676A (Arginine Finger variant) (Saccharomyces cerevisiae) (UniProt P29469).
Test [4] deals with MCM-Cdt1 complex with Mcm3 R542A (Arginine Finger variant) (Saccharomyces cerevisiae) (UniProt P29469).
Test [5] deals with MCM-Cdt1 complex with Mcm7 R593A (Arginine Finger variant) (Saccharomyces cerevisiae) (UniProt P29469).
Test [6] deals with MCM-Cdt1 complex, wild type (expressed in yeast) (Saccharomyces cerevisiae) (UniProt P29469).

“MCM-Cdt1 complex with Mcm6 R708A (Arginine Finger variant), P29469 1-868; P24279 1-971; P30665 1-933; P29496 1-775; P53091 1-1017; P38132 1-845; P47112 1-604” returned a DH as % of averageable MCM particles in test [1] of 2.4%.
Consider “MCM-Cdt1 complex with Mcm4 R701A (Arginine Finger variant), P29469 1-868; P24279 1-971; P30665 1-933; P29496 1-775; P53091 1-1017; P38132 1-845; P47112 1-604”, for which the DH as % of averageable MCM particles in test [2] is 22.4%.
In test [3], “MCM-Cdt1 complex with Mcm2 R676A (Arginine Finger variant), P29469 1-868; P24279 1-971; P30665 1-933; P29496 1-775; P53091 1-1017; P38132 1-845; P47112 1-604” yielded a DH as % of averageable MCM particles of 0.5%.
The substance “MCM-Cdt1 complex with Mcm3 R542A (Arginine Finger variant), P29469 1-868; P24279 1-971; P30665 1-933; P29496 1-775; P53091 1-1017; P38132 1-845; P47112 1-604” had a DH as % of averageable MCM particles in test [4] of 13.9%.
“MCM-Cdt1 complex with Mcm7 R593A (Arginine Finger variant), P29469 1-868; P24279 1-971; P30665 1-933; P29496 1-775; P53091 1-1017; P38132 1-845; P47112 1-604” registered a DH as % of averageable MCM particles in test [5] of 5.3%.
As for “MCM-Cdt1 complex, wild type (expressed in yeast), P29469 1-868; P24279 1-971; P30665 1-933; P29496 1-775; P53091 1-1017; P38132 1-845; P47112 1-604”, the DH as % of averageable MCM particles in test [6] worked out at 56.5%.

The record behind these values is publication PMC11748629, “Unidirectional MCM translocation away from ORC drives origin licensing” (Nature Communications, 2025).
